Test results taken from the nanobody polyreactivity screen of Harvey et al. (2022).

Assay: yeast display, Sf9 membrane polyspecificity reagent, FACS + sequencing; frameworks hold sequencing errors
Outline: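 Galactose induction of a Saccharomyces cerevisiae BJ5465 synthetic nanobody display library ran 36–48 hours. The cells were then stained for 1 hour at 4 °C with 10% biotinylated, detergent-solubilized Sf9 membrane reagent, pulled down on streptavidin microbeads and FACS-sorted into low and high (top ~1%) gates on expression and reagent-binding fluorescence. Labels for polyreactivity follow the gate of origin.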

Sequence | polyreactivity (PSR sort gate)
HLQLVESGGGLVQAGGSLRLSCAASGSIFYYNAMGWYRQAPGKERELVASIRANGGNTYYADSVKGRFTISRDNAKNTVYLQMNSLKPEETAVYYCAKESRYAHLYYYWGQGTQVTVSS | low polyreactivity
HVELVDSGGGLVQAGGSLRLSCAASGSIFTDNTRGWFRQAPAKDRELVASISSGGRTYYADSVKGRFTISRDNAKNTVYLQMNSLKPEDTAVSYCAVSCWWKHNYWGQGTQVTVSS | high polyreactivity
HVPLVESGGGIVQAGGRMRLSCAASGSTFTEYAMGGYRQAPGKQREWVAGISSDGSTKYADSVKGRFTISRDNAKNTVYLQMNSLNPEDSAVYYCNKDQSDAKFDYWGQGTQVTVSS | low polyreactivity
HVQLQESGGGLVQACGSQRLSCAASGSISEGQDMGRYRLAPGKEREFVAGIAPGATTYYADSVKGRFTISRDNAKITVYLQMNSLIPEDNAVYYCAARSVTETDHDYWGQGTQVTVSS | low polyreactivity
HVQLQESGGGLVQAGGSLRLSCAASGSIFQATYMGWYRQAPGKEREFVASITYGSITKYADSVNGRFTIGRDNAKDTLYLQMNSLKPEDTAVYYCAVDRHYIPAFHYWGQGTQVTVSS | low polyreactivity
HVQLQETGGGLVQAGGSLRLSCAASGSIFQATYMGWYRQAPGKEREFVASITYGSITIYADSVKGRFTIGRDNAKDTLYLQMNSLKPEDTAVYYCAVDRHYIPAFHYWGQGTQVTVSS | low polyreactivity
HVQLVDSGGGLVQAGGSLRLSCAASGYTFKYNTMGWYRQAPGKERDLVAAITRSGGSTYYADSVKGRFTISRDNAKNTVYLQMNSLKPEDTAVYYCAARAAYKQPVSFDYWGQGTQVTVSS | high polyreactivity
HVQLVESAGGLVQAGGSLRVSCAASGRTFEDNAMGWSRPAPGKERELVAAISSAGSTNYADSVKGRFTISRDNAKNTVYLQMTSLKPEDTAVYYCNATVYWPYDWRTSDYWGHGTQVTVSS | low polyreactivity
HVQLVESGGALVQAGGSLRLSCAASGYIFYYYAMGWYRQAPGKERELVAAITFSGGSTYYADSVKGRFTISRDIAKNTVYLQMNSLKPEDTAGYYCDKVELRDAAELGSDEYDYWGQGTKVTVSS | low polyreactivity
HVQLVESGGGIVQAGGSLRLSCAASGSTYVTNDMGSYRQAPGKERELVAAIYSGTSTNYADSVKGRFTISRDNAKNTVYLQMNSLKPEDTAVYYCAADSLKRYDYWGQGTQVSVSS | low polyreactivity
HVQLVESGGGIVQAGGSLRLSSAASGSTFGSNAMGWYRQAPGKERELVAAITYSGGRTYYADSVKGRFTISRDNAKNTVYLQMNSLKPEDTAVYYCAATFGFFYYQYDYWGQGTQVTVSS | low polyreactivity
HVQLVESGGGLVEAGGSLRLSCAASGYISYVNAMGWYRQAPGKERELVATISIRGGRTYYADSVKGRFTISRDNAKNTVYLQMNSLKPEDTAVYYCNVRRAYYRRGPYYSTYYYWGQGTQVTVSS | high polyreactivity
HVQLVESGGGLVHAGGSLRLRCAASGFTFTTYAMGWYRQAPWKEMELVARISRRSGSTYYADSVKGRFTLSRDNAKNTVYLQMNSLKPDDTAVYYCNADVDRSTTIFDYWGQGTQVTVSS | high polyreactivity
HVQLVESGGGLVHAGGSLRLSCAASGSILPKYAMGWYRQEPGKQRLLVATITWSGSSTYYADSVKGRFTISRDNAQNTVYLQMNSLKPEDTAVYYCAATGWSSFYYRFEYWGQGTQVTVSS | low polyreactivity
HVQLVESGGGLVPAGGSLRLSCAASGSTFIGYARGWYRQAPGKERELVAAISWSGGRTYYADSVKGRFTISRDNAKNTVYLQMNSLKPEDTAVYYCNTVPYRISVQFNYWGQGTQVTVSS | high polyreactivity
HVQLVESGGGLVQAGCSLRLSCAASGSIFLRNTMGWYRQAPGKEREFVAAITKRGGTTYYADSVKGRFTMSRDNAKNTVYLQMNSLKPDDTAVYYCAKSYDNEYGYWGQGTQVTVSS | high polyreactivity
HVQLVESGGGLVQAGGILRLSCAASGSTFVKYAMGWYRQATGKERELVAAISSRGGRTYYADSVKGRFTISRDNAKNTVYLQMNSLKPEDTAVYYCNKGTRLDGEYDYWGQGTQVTVSS | high polyreactivity
HVQLVESGGGLVQAGGSLRISCAASGFTFRYYAMGWYRQAAGKEMELVAAITSSGGRTYYADSVKGRFTISRDNAKNTVYLQMNSLKPEDTAVYYCNAAYGYVSRVYYLIEHDYWGHGTQVTVSS | high polyreactivity
HVQLVESGGGLVQAGGSLRLNCAASGSTFKRNAMGWYRQATGKERELVAAISRSGGSTYYADSVKGRFTISRDNAKTTVYLQMNSLNPEDTAVYFCNALRGTASWRGYYWGQGTQVTVSS | high polyreactivity
HVQLVESGGGLVQAGGSLRLRSAASGRIFYYNAMGWYRQAPGKERELVASISWDASSTYYADSVKGLFTISRDNAKNTVYLQMNSLKPEDTAVYYCNKIHLYRQYDYWGQGTQVTVSS | low polyreactivity
HVQLVESGGGLVQAGGSLRLSCAASGFIFPENAMGWYRQAPGKERELVAAIRTGGSTYYADSVKGRFTISRDNAKNTVYLQMNSLKPEDTAVYYCAARFHYEKYSYWYFDEDYWGQGTQVTVSS | high polyreactivity
HVQLVESGGGLVQAGGSLRLSCAASGFIFQYYCMGWYRQATRKERELVAAIDSRGGSTYYADSVKGRFTISRDNAKNTVYLQMNSLNPADTAVYYCAAMGLYQGTLNHFYYWGQGTQVTVSS | low polyreactivity

Sequence | polyreactivity (PSR sort gate)
HVQLVESGGGLVQAGGSLRLSCAASGFTFGWNDMGWYRQAPGKERELVAAITWSGGSTYYADSVKGRFTISRDNAKNTVYLQMNSLKPEDTAVYYCAAVVSDYVWRYEYWGQGTQVTVSS | low polyreactivity
HVQLVESGGGLVQAGGSLRLSCAASGFTFWDYTMGWYRQAPGKERELVAAISSSGGGTYYADSVKGRFTISRDNAKNTVYLQMNSLKPEDTAVDYCNAVRFLDYWYPDTYGDWGQGTQVTLSS | low polyreactivity
HVQLVESGGGLVQAGGSLRLSCAASGGIFRGYTMGWYRQAPGKETEFVAAITYGGGGTYYADSVKGRFTISRDNAKNTVYLQMNSLKPEDTAVYYCNADLSDVAVTDHDYWGQGTQVTVSS | low polyreactivity
HVQLVESGGGLVQAGGSLRLSCAASGGIFSYYAMGWFRQAPGKERELVAAISSRGTNTHYADSVKGRFTISRDNAKNTVDLQMNSLKPEDTAVYYCAADKRASPIYDWGQGTQVTVSS | high polyreactivity
HVQLVESGGGLVQAGGSLRLSCAASGGTFYTYVMGWYRPAPGKERELVAAISGSGGSTYYADSVKGRFTISRDNAKNTVYLQMNSLKPEDTAVYYCAAVLYYGDIPYYYWGQGTQVTVSS | high polyreactivity
HVQLVESGGGLVQAGGSLRLSCAASGIIFPIYAMGWYRQAARKERELVASISQSGASTYYADSVKGRFTISRDNAKNTVYLQMNSLNPEDTGVYYCAALNGVGPWQLSYEEFDYWGQGTQVTVSS | low polyreactivity
HVQLVESGGGLVQAGGSLRLSCAASGIIFYQYAMGWYRQAPGKERELVATISSNGGATYADSVKGRFTISRDNAKNTVYLQMNSLKPEDTAVYYCNAGGRYHAPSGDYWGQGTQVTVSS | low polyreactivity
HVQLVESGGGLVQAGGSLRLSCAASGIIFYYYTMGWYRPGPRKERELLAWSGGNTYYADSVKGRFTISRDNAKNTVYLQMNSLKPEDTAVYYCNALAIWSDDWDHWISYADDYWGQGTQVTVSS | low polyreactivity
HVQLVESGGGLVQAGGSLRLSCAASGRISGANMGWDRQAPGKERELGAAISNGGSTNYADSVKGRFTISRANAKNTVYLQMNSLKPEDTAVYYCAKLGPRSYSSYRYDYWGQGTQVTVSS | high polyreactivity
HVQLVESGGGLVQAGGSLRLSCAASGRSFRYNAMGWYRQAPGKERELVAAITRSGGSTDYADSVKGRFTISRDNAKNTVNLQMNSLKPEDTAVYYCAKLQNGQWSTSRVPGDYQYNYWGQGTQVTVSS | high polyreactivity
HVQLVESGGGLVQAGGSLRLSCAASGRTFPRYAMGWYRQAPGTERELVAAISVRAGITYYADSVKGRFTISRDNAKNTVYLQMNSLKPEDTAVYYCAKDLWTTSYDEGDYWGQGTQVTVSS | low polyreactivity
HVQLVESGGGLVQAGGSLRLSCAASGRTFVVNAMGWYRQAPGTEREFVAAISYRGDSTYYAVSVKGRFTFSRDNSKNTVYLQMNSLKPEDTAVYYCAARVLGPGRRYYYWGQGTQVTVSS | high polyreactivity
HVQLVESGGGLVQAGGSLRLSCAASGSIFAQYAMGWYRQAPRKDRELLAAISRSTGRTYYADSVKGRFTISRDNAKNTVYLQMNSLKPEDNAVYYWNVVANRALSRSGYDYWGQGTQVTVSS | high polyreactivity
HVQLVESGGGLVQAGGSLRLSCAASGSIFKRYAMGWYTQAPGKERELVAAITSGGSTNYADSVKGRFTISRDNAKNTVYLQMNSLKPEDTAVYYCAAEHDYYPSNLDYWGQGTQVTVSS | low polyreactivity
HVQLVESGGGLVQAGGSLRLSCAASGSIFSGNAMGWSRQAPGKERELVAAIDWSGDSTYYADSVKGRFTLSRDNAKNTVYLQMNSLKPEDTAVYYCNTVSFSWGYSAYDYWGQGTQVTVSS | low polyreactivity
HVQLVESGGGLVQAGGSLRLSCAASGSISAVNTMGWYRQAPGKERELVATISYSTASTYYADSVKGRFTISRDNAKNTVYLQMNSLKPEDTAVYYCAADAYFDTWYDYWGQGTQVTVSS | low polyreactivity
HVQLVESGGGLVQAGGSLRLSCAASGSTFFWYAMGWYRQATGKERELVAAISKTGGSTYYADSVKGRFTISRDNAQNTVYLQMNSLKPEDTAVYYCNAVRYASKAARSFDYWGQGTQVTVSS | low polyreactivity
HVQLVESGGGLVQAGGSLRLSCAASGSTFNINAMGWYRQAPGKETEFVAAINYRGGSTYYADSVKGRFTISRDNSKNTVYLQMNSLKPEDTAVYYCAAASWKVRKKFDYWGQGTQVTVSS | low polyreactivity
HVQLVESGGGLVQAGGSLRLSCAASGYIFYVYAMGWYRQAPGKERELVAAINSGDITSYADSVKGRFTISRDNAKNTVYFQMNSLKPEDTAVYYCATVLILIYDYWGQGTQVTVSS | low polyreactivity
HVQLVESGGGLVQAGGSLRLSFAASASIYQFYPMGWYRPAPGKERELVAGINNSGGSTYYADSVKGRFTISRDNAKNTVYLQMNSLKPEDTAVYYCMARSRYDTGRQRGYDYWGQGTQVTVSS | low polyreactivity
HVQLVESGGGLVQAGGSLRLSSAASGITFYHNAMGWYRQAPGKEMELVAVSSRGGSTYYADSVKGRFTISRDNAKNTVYLQMNSLKPEDTAVYYCNARFWSYRGQVWYYYWGQGTQVTVSS | high polyreactivity
